Test results taken from US20140193378A1 (UNIVERSITY OF MIAMI, published 2014).
Like-named read-outs stand apart in the source and are kept apart here. Non-standard residues stand in square brackets, D forms with d. *: point of attachment. Phe(F5) = N[C@@H](Cc1c(F)c(F)c(F)c(F)c1F)C(=O)O; Desaminotyrosyl = O=C(CCc1ccc(O)cc1)*; Agmatine = N=C(N)NCCCCN*; Nle = CCCC[C@H](N)C(=O)O; Orn = NCCC[C@H](N)C(=O)O; Abu = CC[C@H](N)C(=O)O; GABA = NCCCC(=O)O

How the values were obtained:
[1] = target: T1, human GHRH receptor (human pituitary membrane homogenates) (human, UniProt Q02643 23-423); test: radioligand competition vs 125I-JV-1-42 (0.2 nM), human pituitary membranes
T1 construct: whole, on cells; Native receptor in human pituitary membrane homogenates, not on intact cells; also called hGHRH receptor
T1 sequence (looked up): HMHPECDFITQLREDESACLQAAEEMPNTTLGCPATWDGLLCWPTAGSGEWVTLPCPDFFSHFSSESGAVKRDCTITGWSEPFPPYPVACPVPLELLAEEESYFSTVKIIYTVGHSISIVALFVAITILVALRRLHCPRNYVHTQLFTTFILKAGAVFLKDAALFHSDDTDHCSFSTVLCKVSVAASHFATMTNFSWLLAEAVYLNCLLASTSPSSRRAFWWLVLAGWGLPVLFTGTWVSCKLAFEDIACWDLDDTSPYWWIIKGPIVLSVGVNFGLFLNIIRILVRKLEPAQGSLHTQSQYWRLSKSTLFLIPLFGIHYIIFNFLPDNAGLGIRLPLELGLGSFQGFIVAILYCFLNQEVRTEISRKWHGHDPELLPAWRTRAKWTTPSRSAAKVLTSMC
From the text: (§1) Normal human pituitaries were purchased from the National Hormone and Peptide Program (A. F. Parlow, Los Angeles, County Harbor-UCLA Medical Center, Torrance, Calif.).

[2] = target: T1, human GHRH receptor (human pituitary …); test: as above; remark: listed apart in the source
From the text: as §1

B1: P-20350 [Dat^1, D-Ala^2, Gln^8, Orn^12, Abu^15, Orn^21, Nle^27, Asp^28, Agm^29]hGHRH(1-29)NH2 (peptide)
peptide: [Desaminotyrosyl][dA]DAIFTQSYR[Orn]VL[Abu]QLSAR[Orn]LLQDI[Nle]D[Agmatine]
SMILES: CCCC[C@H](NC(=O)[C@@H](NC(=O)[C@H](CC(=O)O)NC(=O)[C@H](CCC(N)=O)NC(=O)[C@H](CC(C)C)NC(=O)[C@H](CC(C)C)NC(=O)[C@H](CCCN)NC(=O)[C@H](CCCNC(=N)N)NC(=O)[C@H](C)NC(=O)[C@H](CO)NC(=O)[C@H](CC(C)C)NC(=O)[C@H](CCC(N)=O)NC(=O)[C@H](CC)NC(=O)[C@H](CC(C)C)NC(=O)[C@@H](NC(=O)[C@H](CCCN)NC(=O)[C@H](CCCNC(=N)N)NC(=O)[C@H](Cc1ccc(O)cc1)NC(=O)[C@H](CO)NC(=O)[C@H](CCC(N)=O)NC(=O)[C@@H](NC(=O)[C@H](Cc1ccccc1)NC(=O)[C@@H](NC(=O)[C@H](C)NC(=O)[C@H](CC(=O)O)NC(=O)[C@@H](C)NC(=O)CCc1ccc(O)cc1)[C@@H](C)CC)[C@@H](C)O)C(C)C)[C@@H](C)CC)C(=O)N[C@@H](CC(=O)O)C(=O)NCCCCNC(=N)N
notes: also called Peptide 20350
Relative affinity (Binding potency) vs GHRH [1]: 102 fold
Relative affinity (Binding potency) vs JI-38 [1]: 42.7 fold
Relative affinity (Binding potency) vs JI-38 [2]: 8.37 fold

B2: P-25502 [Dat^1, D-Ala^2, Fpa5^6, Orn^12, Abu^15, Orn^21, Nle^27, Gab^30]hGHRH(1-30)NH2 (peptide)
peptide: [Desaminotyrosyl][dA]DAI[Phe(F5)]TNSYR[Orn]VL[Abu]QLSAR[Orn]LLQDI[Nle]SR[GABA]-NH2
SMILES: CCCC[C@H](NC(=O)[C@@H](NC(=O)[C@H](CC(=O)O)NC(=O)[C@H](CCC(N)=O)NC(=O)[C@H](CC(C)C)NC(=O)[C@H](CC(C)C)NC(=O)[C@H](CCCN)NC(=O)[C@H](CCCNC(=N)N)NC(=O)[C@H](C)NC(=O)[C@H](CO)NC(=O)[C@H](CC(C)C)NC(=O)[C@H](CCC(N)=O)NC(=O)[C@H](CC)NC(=O)[C@H](CC(C)C)NC(=O)[C@@H](NC(=O)[C@H](CCCN)NC(=O)[C@H](CCCNC(=N)N)NC(=O)[C@H](Cc1ccc(O)cc1)NC(=O)[C@H](CO)NC(=O)[C@H](CC(N)=O)NC(=O)[C@@H](NC(=O)[C@H](Cc1c(F)c(F)c(F)c(F)c1F)NC(=O)[C@@H](NC(=O)[C@H](C)NC(=O)[C@H](CC(=O)O)NC(=O)[C@@H](C)NC(=O)CCc1ccc(O)cc1)[C@@H](C)CC)[C@@H](C)O)C(C)C)[C@@H](C)CC)C(=O)N[C@@H](CO)C(=O)N[C@@H](CCCNC(=N)N)C(=O)NCCCC(N)=O
notes: also called Peptide 25502; MR-502
Relative affinity (Binding potency) vs GHRH [1]: 58 fold
Relative affinity (Binding potency) vs JI-38 [1]: 24.4 fold
Relative affinity (Binding potency) vs JI-38 [2]: 13.2 fold
